In paper PMC9569640 (2022):
Square brackets hold non-standard residues; d marks the D form. Ends that are not written are not given here. FAM = FAM, a fluorescent label attached at the N-terminus of the peptide; pY = N[C@@H](Cc1ccc(OP(=O)(O)O)cc1)C(=O)O

Key:
Assay in all cases: fluorescence polarization
CagA EPIYA-CD 8-mer = target: T1, CagA EPIYA-CD 8-mer (Helicobacter pylori)
T1 chain: {FAM}-EPI[pY]ATID

CagA EPIYA-D 13-mer = CagA EPIYA-D 13-mer (Helicobacter pylori)
CagA EPIYA-B 13-mer = target: T2, CagA EPIYA-B 13-mer (Helicobacter pylori)
T2 chain: {FAM}-PEEPI[pY]AQVAKKV

CagA EPIYA-C 13-mer = target: T3, CagA EPIYA-C 13-mer (Helicobacter pylori)
T3 chain: {FAM}-SPEPI[pY]ATIDDLG

CagA EPIYA-A 13-mer = CagA EPIYA-A 13-mer (Helicobacter pylori)

B1: SHIP2 SH2 (protein)
chain: APSWYHRDLSRAAAEELLARAGRDGSFLVRDSESVAGAFALCVLYQKHVHTYRILPDGEDFLAVQTSQGVPVRRFQTLGELIGLYAQPNQGLVCALLLPVEGE
- Kd (CagA EPIYA-CD 8-mer): 4.45 µM
- Kd (CagA EPIYA-D 13-mer): 3.16 µM
- Kd (CagA EPIYA-B 13-mer): 18.6 µM
- Kd (CagA EPIYA-C 13-mer): 2.96 µM
- Kd (CagA EPIYA-A 13-mer): 23.4 µM
